Measured values from patent publication US20140235820A1, “METHODS AND COMPOSITIONS FOR MODULATING THE Wnt PATHWAY” (Genentech, Inc., priority 2010, published 2014).
Residue numbers refer to the chain shown, from its start.

Key:
Assay in all cases: Steady-state affinity for LRP6 E1E2 variants carrying LRP5 BMD substitutions
[1] = system: LRP6 E1E2 variants with LRP5 BMD substitutions; assay type: binding, human
Experimental: (§1) FIG. 13. Introduction of LRP5 BMD substitutions into LRP6 E1E2 lowers affinity for Wnt inhibitors. The five substitutions characterized are indicated on the y-axis. Steady-state affinity measurements were made for Wnt9b, Dkk1, and sclerostin binding to each of the LRP6 variants.
(§2) Binding kinetics were measured by biolayer interferometry using an Octet Red instrument (ForteBio) as previously described (11). Streptavidin (SA) biosensors were loaded with biotinylated hLRP6 in 50 mMTris, pH 8, 300 mM NaCl, 5% (v/v) glycerol, and 0.05% (w/v) Triton X-100. The loaded biosensors were washed in the same buffer before carrying out association and dissociation measurements for the indicated times. The Kd of each interaction was determined using steady state-analysis through the Octet Red software v6.3. Each reported value represents an average of three or more experiments at different concentrations, with a fitted experimental curve for which the square of the correlation coefficient (R^2) is above 0.96.
(§3) Cells transfected with LRP5 variants carrying BMD mutations show reduced binding to sclerostin and are less sensitive to sclerostin inhibition of Wnt10b or Wnt6 signaling (70). To further test the effects of the BMD substitutions, we introduced several of them into LRP6 E1E2, with the results shown in FIG. 13. LRP6 E1E2 Gly158Val could not be expressed in insect cells. […] Importantly, not only is the binding to sclerostin affected (70), but the binding of Dkk1 to its E1 interaction site is also impaired.

[2] = target: T1, LRP6 E1E2 variants with LRP5 BMD substitutions (Homo sapiens, UniProt O75581, N185S); assay type: binding; conditions: LRP6 Asn185 to Ser vs wild type LRP6 E1E2
T1 construct: construct E1E2-amino acids A20-E631 of LPR6; made in house; host or cells: insect cells (Tni, baculovirus)
T1 sequence (O75581 20-631 N185S): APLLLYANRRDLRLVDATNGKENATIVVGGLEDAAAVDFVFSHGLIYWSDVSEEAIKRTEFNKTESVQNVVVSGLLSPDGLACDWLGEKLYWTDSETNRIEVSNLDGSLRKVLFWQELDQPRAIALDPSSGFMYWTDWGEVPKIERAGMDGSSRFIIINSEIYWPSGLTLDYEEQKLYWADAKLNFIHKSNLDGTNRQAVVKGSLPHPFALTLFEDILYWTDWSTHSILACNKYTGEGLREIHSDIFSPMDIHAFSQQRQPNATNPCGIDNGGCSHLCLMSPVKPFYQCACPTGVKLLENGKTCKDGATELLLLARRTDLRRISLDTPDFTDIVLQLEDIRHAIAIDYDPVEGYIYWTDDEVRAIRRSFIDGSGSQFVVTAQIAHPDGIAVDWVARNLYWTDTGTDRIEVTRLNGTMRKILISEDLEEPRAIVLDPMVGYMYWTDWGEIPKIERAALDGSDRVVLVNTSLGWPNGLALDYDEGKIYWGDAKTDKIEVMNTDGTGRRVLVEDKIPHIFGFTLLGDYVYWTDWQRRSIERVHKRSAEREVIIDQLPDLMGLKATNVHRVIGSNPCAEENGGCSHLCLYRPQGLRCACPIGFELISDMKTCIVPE
Experimental: as §1, §2, §3

[3] = target: T2, LRP6 E1E2 variants with LRP5 BMD substitutions (Homo sapiens, UniProt O75581, R141M); assay type: binding; conditions: LRP6 Arg141Met vs wild type LRP6 E1E2
T2 construct: construct E1E2-amino acids A20-E631 of LPR6; made in house; host or cells: insect cells (Tni, baculovirus)
T2 sequence (O75581 20-631 R141M): T1 sequence (O75581 20-631 N185S) with R122M, S166N
Experimental: as §1, §2, §3

Row | effect of LRP6 BMD mutations on binding to LRP6 E1E2 (in words) [1] | loss in affinity for LRP6 E1E2 Asn185Ser [2] [fold] | loss in affinity for LRP6 E1E2 Arg141Met [3] [fold] | Substance
1 | disrupt the binding | 59 | 31 | sclerostin: Sclerostin protein, Wnt pathway inhibitor, expressed in insect cells (LPNAIGR)
2 | disrupt the binding | 183 | 29 | Dkk1: Dickkopf 1 protein, Wnt pathway inhibitor, expressed in insect cells (NSNAIKN)
